Patent US5654398, “Compositions and methods for inhibiting replication of human immunodeficiency virus-1” (The Regents of the University of California)

Target: Rev34-50 peptide I (free N- and C-termini) (HIV-1)
Assay: EMSA; apparent nonspecific Kd with tRNA, 4 C
Conditions: protein: synthetic; tags: synthetic peptide, unmodified termini; label: 32P; stem-loop with internal bulge

B1: RRE IIB C46-G74 mutant (ssRNA)
RNA: GGCUGGUAUCGGCGCAGCGUCAAUGACGCUGACGGUAGAGGCCAGCC
modifications: [10,38]
- Kd: 3000 nM
